Laboratory results: paper PMC6309729
Like-named read-outs stand apart in the source and are kept apart here.

Experiments:
Experiment in all cases: other fluorescence titration
[1] = biological target: cpSRP54(234C)-acrylodan (Arabidopsis thaliana) (UniProt P37107)
[2] = biological target: acrylodan-labeled cpSRP54(234C, A142W) (Arabidopsis thaliana)
[3] = biological target: cpSRP54(234C)-acrylodan (Arabidopsis thaliana) (UniProt P37107); remark: listed apart in the source

B1: cpFtsY (chloroplast SRP receptor), wildtype (natural protein)
chain: CSAGPSGFFTRLGRLIKEKAKSDVEKVFSGFSKTRENLAVIDELLLFWNLAETDRVLDELEEALLVSDFGPKITVRIVERLREDIMSGKLKSGSEIKDALKESVLEMLAKKNSKTELQLGFRKPAVIMIVGVNGGGKTTSLGKLAHRLKNEGTKVLMAAGDTFRAAASDQLEIWAERTGCEIVVAEGDKAKAATVLSKAVKRGKEEGYDVVLCDTSGRLHTNYSLMEELIACKKAVGKIVSGAPNEILLVLDGNTGLNMLPQAREFNEVVGITGLILTKLDGSARGGCVVSVVEELGIPVKFIGVGEAVEDLQPFDPEAFVNAIFS
- kon [1]: 157000 M⁻¹ s⁻¹
- apparent dissociation rate constant (before subtracting GTP hydrolysis) [2]: 0.038 s⁻¹
- koff [2]: 0.03 s⁻¹
- kon [2]: 190000 M⁻¹ s⁻¹
- kon [3]: 230000 M⁻¹ s⁻¹
